The source of these data is patent US20190256560A1 (INSTITUT PASTEUR, published 2019).

The target of the assay is T1, Recombinant soluble Zika virus E ectodomain (ZIKV sE), strain H/PF/2013 (Zika virus, UniProt A0A024B7W1 291-694).
T1 construct: also called ZIKV sE dimer; recombinant ZIKV E protein
As to the kind of experiment: BLI (Octet), IgG on anti-human IgG Fc sensors, ZIKV sE dimer in solution. Background: Biolayer interferometry detects binding as a change in optical thickness at a sensor tip.

T1 sequence (A0A024B7W1 291-694): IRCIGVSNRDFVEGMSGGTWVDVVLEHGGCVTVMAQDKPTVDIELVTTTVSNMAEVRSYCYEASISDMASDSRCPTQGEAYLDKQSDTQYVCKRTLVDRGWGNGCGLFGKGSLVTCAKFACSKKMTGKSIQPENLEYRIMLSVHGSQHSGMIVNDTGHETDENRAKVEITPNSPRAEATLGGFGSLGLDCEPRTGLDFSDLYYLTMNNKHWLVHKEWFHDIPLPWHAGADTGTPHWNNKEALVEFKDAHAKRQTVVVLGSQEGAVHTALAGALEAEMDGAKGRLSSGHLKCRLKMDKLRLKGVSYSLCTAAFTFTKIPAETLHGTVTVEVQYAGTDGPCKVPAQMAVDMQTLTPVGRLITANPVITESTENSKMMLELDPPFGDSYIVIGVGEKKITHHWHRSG

B1: EDE2 A11, human recombinant IgG (antibody, V domains shown)
VH: EVQLVESGGGLVRPGGSLRLSCAASGFSYSNHWMHWVRQAPGKGLVWVSRINSDGSTRNYADFVKGRFTISRDNAENTLYLEMNSLTADDTAVYYCVRDGVRFYYDSTGYYPDSFFKYGMDVWGQGTTVTV
VL: QSVLTQPVSVSGSPGQSITISCTGTSSNADTYNLVSWYQQRPGKAPKLMIYEGTKRPSGVSNRFSASKSATAASLTISGLQPEDEADYYCCSYATSRTLVFGGGTKLTVV
notes: Human IgG; also called IgG EDE2 A11
B1: the binding result was “binds”.
